Consider one substance from article PMC4831024.

In the assay the target is Ku70/Ku80ΔC heterodimer, P12956;P13010. As to the kind of experiment: fluorescence polarisation. Particulars: read at the highest Ku concentration, about 14 µM KuΔC; 100 nM fluorescein-labeled peptide; room temperature; 20 mM HEPES pH 7.5, 200 mM NaCl, 0.5 mM TCEP; parent: est. 190; read off a plot.

Turning to “fluorescein-labelled WRN-nA peptide (N-terminal KBM of WRN) W18A”, the response amounted to 19 millidegrees.
